Results as given in patent publication US20220347304A1 (CYTOKI PHARMA, published 2022).

T1: human IL-22 receptor (human IL-22Ra and human IL-10Rb) on cells (human, UniProt Q8N6P7 16-574; Q08334 20-325)
T1 sequence (looked up) 1: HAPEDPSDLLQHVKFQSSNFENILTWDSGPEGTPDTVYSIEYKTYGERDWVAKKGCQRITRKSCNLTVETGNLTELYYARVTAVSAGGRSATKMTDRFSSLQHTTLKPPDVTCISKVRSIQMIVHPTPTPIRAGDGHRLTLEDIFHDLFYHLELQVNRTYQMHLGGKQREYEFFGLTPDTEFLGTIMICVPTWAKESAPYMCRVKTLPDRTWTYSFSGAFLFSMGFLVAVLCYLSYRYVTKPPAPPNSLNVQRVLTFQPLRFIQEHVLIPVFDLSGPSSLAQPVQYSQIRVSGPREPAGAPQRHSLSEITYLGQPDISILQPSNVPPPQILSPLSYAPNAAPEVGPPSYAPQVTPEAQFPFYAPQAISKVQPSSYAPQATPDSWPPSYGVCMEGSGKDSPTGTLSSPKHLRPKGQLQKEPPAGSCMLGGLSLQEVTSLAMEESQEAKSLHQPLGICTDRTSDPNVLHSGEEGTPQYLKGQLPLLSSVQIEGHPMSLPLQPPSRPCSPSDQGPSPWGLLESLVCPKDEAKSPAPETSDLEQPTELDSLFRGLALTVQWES
T1 sequence (looked up) 2: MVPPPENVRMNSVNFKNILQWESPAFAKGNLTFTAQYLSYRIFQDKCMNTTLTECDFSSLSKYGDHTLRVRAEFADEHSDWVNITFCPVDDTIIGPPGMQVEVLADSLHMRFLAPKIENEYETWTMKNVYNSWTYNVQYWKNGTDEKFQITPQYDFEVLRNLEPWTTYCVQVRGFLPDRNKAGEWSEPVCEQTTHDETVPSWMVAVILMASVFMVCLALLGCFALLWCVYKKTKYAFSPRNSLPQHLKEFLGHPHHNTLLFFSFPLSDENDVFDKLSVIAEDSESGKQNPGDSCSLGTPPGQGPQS


Assays:
Experiment in all cases: cell-based or functional assay
[1] = target: T1, human IL-22 receptor (human IL-22Ra and …)
[2] = target: T1, human IL-22 receptor (human IL-22Ra and …); remark: listed apart in the source
[3] = target: T1, human IL-22 receptor (human IL-22Ra and …); remark: listed apart in the source

Binder | EC50, luciferase reporter gene (STAT3-induced promoter) in BHK cells expressing human IL-22Ra and IL-10Rb [1] | EC50, pSTAT3 (AlphaScreen SureFire STAT3 p-Tyr705) in HepG2 cells [2] | potency in BHK cell reporter gene assay, fold reduction against hIL-22 [3] | potency in HepG2 pSTAT3 assay, fold reduction against hIL-22 [3]
native mature human IL-22 (hIL-22) (ligand) APISSHCRLDKSNFQQPYITNRTFMLAKEASLADNNTDVRLIGEKLFHGVSMSERCYLMKQVLNFTLEEVLFPQSDRFQPYMQEVVPFLARLSNRLSTCHIEGDDLHIQRNVQKLKDTVKKLGESGEIKAIGELDLLFMSLRNACI | 0.07 nM | 3.88 nM |  | 
Derivative 8 (ligand, C18 diacid attached by linker γGlu-OEG-OEG-C2DA-Ac to Cys at site 6C (Cys substituted at position 6 of hIL-22)) GAPISSCCRLDKSNFQQPYITNRTFMLAKEASLADQNTDVRLIGEKLFHGVSMSERCYLMKQVLQFTLEEVLFPQSDRFQPYMQEVVPFLARLSNRLSTCHIEGDDLHIQRNVQKLKDTVKKLGESGEIKAIGELDLLFMSLRNACI | 1.24 nM |  |  | 
Derivative 9 (ligand, C18 diacid attached by linker γGlu-OEG-OEG-C2DA-Ac to Cys at site 33C (Cys substituted at position 33 of hIL-22)) APISSHCRLDKSNFQQPYITNRTFMLAKEASLCDQNTDVRLIGEKLFHGVSMSERCYLMKQVLQFTLEEVLFPQSDRFQPYMQEVVPFLARLSNRLSTCHIEGDDLHIQRNVQKLKDTVKKLGESGEIKAIGELDLLFMSLRNACI | 0.28 nM |  |  | 
Derivative 10 (ligand, C16 diacid attached by linker γGlu-OEG-OEG-C2DA-Ac to Cys at site 1C (Cys substituted at position 1 of hIL-22)) GPGCPISSHCRLDKSNFQQPYITNRTFMLAKEASLADQNTDVRLIGEKLFHGVSMSERCYLMKQVLQFTLEEVLFPQSDRFQPYMQEVVPFLARLSNRLSTCHIEGDDLHIQRNVQKLKDTVKKLGESGEIKAIGELDLLFMSLRNACI | 0.37 nM |  |  | 
Derivative 3 (ligand, C16 diacid attached by linker γGlu-OEG-OEG-C2DA-Ac to Cys at site 1C (Cys substituted at position 1 of hIL-22)) GPGCPISSHCRLDKSNFQQPYITNRTFMLAKEASLADNNTDVRLIGEKLFHGVSMSERCYLMKQVLNFTLEEVLFPQSDRFQPYMQEVVPFLARLSNRLSTCHIEGDDLHIQRNVQKLKDTVKKLGESGEIKAIGELDLLFMSLRNACI | 0.3 nM |  | 4 fold | 
Derivative 1 (ligand, C18 diacid attached by linker γGlu-OEG-OEG-C2DA-Ac to Cys at site 1C (Cys substituted at position 1 of hIL-22, after the G-P-G N-terminal peptide)) GPGCPISSHCRLDKSNFQQPYITNRTFMLAKEASLADNNTDVRLIGEKLFHGVSMSERCYLMKQVLNFTLEEVLFPQSDRFQPYMQEVVPFLARLSNRLSTCHIEGDDLHIQRNVQKLKDTVKKLGESGEIKAIGELDLLFMSLRNACI | 0.48 nM | 10.1 nM | 7 fold | 2.5 fold
Comparator 1 (ligand) GPISSHCRLDKSNFQQPYITNRTFMLAKEASLADNNTDVRLIGEKLFHGVSMSERCYLMKQVLNFTLEEVLFPQSDRFQPYMQEVVPFLARLSNRLSTCHIEGDDLHIQRNVQKLKDTVKKLGESGEIKAIGELDLLFMSLRNACI | 0.06 nM | 4.73 nM |  | 
Comparator 4 (ligand) GPGCPISSHCRLDKSNFQQPYITNRTFMLAKEASLADNNTDVRLIGEKLFHGVSMSERCYLMKQVLNFTLEEVLFPQSDRFQPYMQEVVPFLARLSNRLSTCHIEGDDLHIQRNVQKLKDTVKKLGESGEIKAIGELDLLFMSLRNACI |  | 12.1 nM |  | 
Derivative 2 (ligand, C18 diacid attached by linker γGlu-OEG-OEG-C2DA-Ac to Cys at site -7C (in the 15-mer N-terminal peptide G-P-G-S-G-S-G-S-C-G-S-G-S-G-S, numbered negatively from hIL-22 residue 1)) GPGSGSGSCGSGSGSAPISSHCRLDKSNFQQPYITNRTFMLAKEASLADNNTDVRLIGEKLFHGVSMSERCYLMKQVLNFTLEEVLFPQSDRFQPYMQEVVPFLARLSNRLSTCHIEGDDLHIQRNVQKLKDTVKKLGESGEIKAIGELDLLFMSLRNACI |  | 6.98 nM |  | 
Derivative 6 (ligand, C18 diacid attached by linker γGlu-OEG-OEG-C2DA-Ac to Cys at site 1C (Cys substituted at position 1 of hIL-22)) GPGCPISSHCRLDKSNFQQPYITNRTFMLAKEASLADQNTDVRLIGEKLFHGVSMSERCYLMKQVLQFTLEEVLFPQSDRFQPYMQEVVPFLARLSNRLSTCHIEGDDLHIQRNVQKLKDTVKKLGESGEIKAIGELDLLFMSLRNACI | 0.61 nM | 14.9 nM |  | 
Comparator 5 (ligand) GPGCPISSHCRLDKSNFQQPYITNRTFMLAKEASLADQNTDVRLIGEKLFHGVSMSERCYLMKQVLQFTLEEVLFPQSDRFQPYMQEVVPFLARLSNRLSTCHIEGDDLHIQRNVQKLKDTVKKLGESGEIKAIGELDLLFMSLRNACI | 0.19 nM |  |  | 
Derivative 4 (ligand, C16 diacid attached by linker γGlu-OEG-OEG-C2DA-Ac to Cys at site -7C (in the 15-mer N-terminal peptide)) GPGSGSGSCGSGSGSAPISSHCRLDKSNFQQPYITNRTFMLAKEASLADNNTDVRLIGEKLFHGVSMSERCYLMKQVLNFTLEEVLFPQSDRFQPYMQEVVPFLARLSNRLSTCHIEGDDLHIQRNVQKLKDTVKKLGESGEIKAIGELDLLFMSLRNACI | 0.18 nM |  |  | 
